# Reference: paper PMC10095184
# Key:
# [1] = test system: NS5-6xHis AHSV-4 (African horse sickness virus 4); experiment: pull-down RT-qPCR
# [2] = test system: NS5-6xHis BTV-1 (Bluetongue virus 1); experiment: pull-down RT-qPCR
substance,measurement,setting,value
BTV-1 Seg-1 mRNA,binding signal (Ct (ctrl 14.81)),[1],11.3
same,binding signal (Ct (ctrl 18.09)),[1],11.6
same,binding signal (Ct (ctrl 14.81)),[2],10.8
same,binding signal (Ct (ctrl 18.09)),[2],10.9
BTV-1 Seg-3 mRNA,binding signal (Ct (ctrl 19.32)),[1],11.9
same,binding signal (Ct (ctrl 19.87)),[1],11.8
same,binding signal (Ct (ctrl 19.32)),[2],11.2
same,binding signal (Ct (ctrl 19.87)),[2],11.5
BTV-1 Seg-7 mRNA,binding signal (Ct (ctrl 16.17)),[1],11.8
same,binding signal (Ct (ctrl 16.39)),[1],10.9
same,binding signal (Ct (ctrl 16.17)),[2],11.1
same,binding signal (Ct (ctrl 16.39)),[2],10.2
